Assays:
Format in all cases: biochemical, Crocus sativus
[1] = substrate: O=c1c(O)c(-c2ccc(O)cc2)oc2cc(O)cc(O)c12; assay: HPLC of glucoside formed, Lineweaver-Burk; details: 7-O-glucoside formation, 2.5 mM UDP-glucose, 50 mM Tris-HCl pH 7.5, 14 mM 2-mercaptoethanol, 30°C
Text: (§1) HPLC of glucoside formed, Lineweaver-Burk on CsGT45

[2] = substrate: O=c1c(O)c(-c2ccc(O)c(O)c2)oc2cc(O)cc(O)c12; assay: HPLC of glucoside formed, Lineweaver-Burk; details: 7-O-glucoside formation (preferred position), 2.5 mM UDP-glucose, 50 mM Tris-HCl pH 7.5, 14 mM 2-mercaptoethanol, 30°C
Text: as §1

HPLC of glucoside formed = substrate: O=c1ccn([C@@H]2O[C@H](CO[P@@](=O)(O)O[P@@](=O)(O)O[C@H]3O[C@H](CO)[C@@H](O)[C@H](O)[C@H]3O)[C@@H](O)[C@H]2O)c(=O)[nH]1; assay: HPLC of glucoside formed; details: constant kaempferol as acceptor (level not given)

B1: CsGT45 (Crocus sativus) (protein)
chain: MEQHQPNILVVTYPAQGHINPALHLAKHLAADTKGLLITFSTAISAHRKMFPESTEPDQEVEDGPITYIPFSDGYDDGFQRDKHDGKQFRSRFKTVGSNTLSAIIQNLEHRGRKVSCVIYTFFVSWAADVARQHAIPSVQYWIQPATVFAIYYHYFHGYESVVAAHSHDPSYPINLPGLSPVQVRDLPSFLTIKPDDPYAVVLSMIRDSFEGLDREETKTKVLVNTFGQLEADAILAVDKMDIIPVGPILPCKGGVSRGDLLKEDEKGYMEWLDSKPENSVVYVSLESLAVLKKQQKFLILKGLKDSGRPYLWVVRRDSGLEGVELGDWDGDGDGDNGMVVGWCSQVSVLSHPSVGCFVTHCGWNSTMESLASGVPTIGVPQWSDQPTCAALAEKDWGIGVRSEVNGDGILEGGELKRCLDLVLGDGERGVEIRRKVEFWKDKATEAISFGGSSDKNLRTFVDQITGYDPNVSSVGFWKDKAIHRQHCEESESASPS
For B1, which Km [1] is on record?
The Km was 15.6 ± 1.2 µM.

What about the Km [2] of the same protein?
Its Km is 21.50 ± 2.3 µM.

What about the Km (HPLC of glucoside formed) of the same protein?
Its Km is 600 µM.
